According to patent US20230210943A1 (PEMI31 THERAPEUTICS, published 2023):

What was measured:
[1] = target: scavenger receptor CD-36 pulled down from macrophage membrane extracts or lysates (UniProt P16671 2-472); assay: plate binding assay on CD-36 pulled down from macrophage membrane extracts
[2] = target: T1, scavenger receptor SR-AI pulled down from macrophage membrane extracts or lysates (UniProt P21757 1-451); assay: plate binding assay on SR-AI pulled down from macrophage membrane extracts
T1 construct: also called SR-A1
T1 sequence (looked up): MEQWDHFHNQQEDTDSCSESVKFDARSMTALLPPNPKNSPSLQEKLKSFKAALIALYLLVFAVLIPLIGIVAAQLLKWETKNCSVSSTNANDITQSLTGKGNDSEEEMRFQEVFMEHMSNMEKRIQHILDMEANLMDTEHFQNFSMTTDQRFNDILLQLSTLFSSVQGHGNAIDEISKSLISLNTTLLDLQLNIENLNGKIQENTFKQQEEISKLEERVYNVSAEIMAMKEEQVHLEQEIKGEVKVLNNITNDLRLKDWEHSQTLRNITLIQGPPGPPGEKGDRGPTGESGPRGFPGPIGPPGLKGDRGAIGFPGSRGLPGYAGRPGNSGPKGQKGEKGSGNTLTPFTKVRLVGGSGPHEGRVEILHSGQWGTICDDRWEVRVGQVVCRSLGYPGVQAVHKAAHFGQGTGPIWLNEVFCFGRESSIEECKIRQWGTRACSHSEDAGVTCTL

Sequence of scavenger receptor CD-36 pulled down from macrophage membrane extracts or lysates (P16671 2-472 limits assumed): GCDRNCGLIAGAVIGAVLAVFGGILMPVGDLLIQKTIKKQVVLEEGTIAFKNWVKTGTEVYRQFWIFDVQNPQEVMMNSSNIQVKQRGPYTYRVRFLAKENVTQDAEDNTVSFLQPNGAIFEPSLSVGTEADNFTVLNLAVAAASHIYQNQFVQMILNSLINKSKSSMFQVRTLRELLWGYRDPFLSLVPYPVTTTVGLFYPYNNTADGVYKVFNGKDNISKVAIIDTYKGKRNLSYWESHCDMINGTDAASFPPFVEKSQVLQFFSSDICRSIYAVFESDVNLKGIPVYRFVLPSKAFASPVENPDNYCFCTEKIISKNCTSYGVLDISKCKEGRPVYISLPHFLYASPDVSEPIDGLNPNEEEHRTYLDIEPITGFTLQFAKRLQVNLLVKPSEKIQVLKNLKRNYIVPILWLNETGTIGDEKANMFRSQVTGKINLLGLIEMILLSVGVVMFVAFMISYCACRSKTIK

binding result [1]: no binding
binding result [2]: no binding
B1: HIS-tagged HSP27 polypeptide fragment rC1 (other)
chain: MHHHHHHHHDDDDKGGDRWRVSLDVNHFAPDELTVKTKDGVVEITGKHEERQDEHGYISRCFTRKYTLPPGVDPTQVSSSLSPEGTLTVEAPMPKLSTQSNEITIPVTFESRAQLGGPEAAKSDETAAK
notes: also called HSP27 rC1; HSP27 fragment rC1
